Consider 27 molecules from US20260167959A1, “APTAZYME-BASED REGULATABLE GENE EXPRESSION SYSTEMS” (REJUVENATE BIO INC, priority 2022, published 2026).

B1: RA170 (nucleic acid)
DNA: GCGCGTCCTGGATTCGCGGAAACGCGTACATCCAGCTGACGAGTCCCAAATAGGACGAAACGCAGAATACCAGCATCGTCTTGATGCCCTTGGAAGTCTGC
modifications: expressed or natural sequence
B2: RA016 (nucleic acid)
DNA: GCGCGTCCTGGATGAGAATACCAGCATCGTCTTGATGCCCTTGGAAGTCTCTCGCGGAAACGCGTACATCCAGCTGACGAGTCCCAAATAGGACGAAACGCGC
modifications: expressed or natural sequence
B3: RA168 (nucleic acid)
DNA: GCGCGTCCTGGATCGAGAATACCAGCATCGTCTTGATGCCCTTGGAAGTCTCGTCGCGGAAACGCGTACATCCAGCTGACGAGTCCCAAATAGGACGAAACGCGC
modifications: expressed or natural sequence
B4: RA167 (nucleic acid)
DNA: GCGCGTCCTGGATTCGCGGAAACGCGTACATCCAGGGAATACCAGCATCGTCTTGATGCCCTTGGAAGTCCCTGACGAGTCCCAAATAGGACGAAACGCGC
modifications: expressed or natural sequence
B5: RA166 (nucleic acid)
DNA: GCGCGTCCTGGATTCGCGGAAACGCGTACATCCAGCTGACGAGTCCCACGAGAATACCAGCATCGTCTTGATGCCCTTGGAAGTCTCGAATAGGACGAAACGCGC
modifications: expressed or natural sequence
B6: RA157 (nucleic acid)
DNA: GCGCGTCCTGGATTCGCGGAAACGCGTAAGAATACCAGCATCGTCTTGATGCCCTTGGAAGTCTCATCCAGCTGACGAGTCCCAAATAGGACGAAACGCGC
modifications: expressed or natural sequence
B7: RA161 (nucleic acid)
DNA: GCGCGTCCTGGATTCGCGGAAACGCGTACATCCAGCTGACGAGTCCCAAATAGGACCCGGAATACCAGCATCGTCTTGATGCCCTTGGAAGTCCGGGAAACGCGC
modifications: expressed or natural sequence
B8: RA156 (nucleic acid)
DNA: GCCGGAATACCAGCATCGTCTTGATGCCCTTGGAAGTCCGGCGCGTCCTGGATTCGCGGAAACGCGTACATCCAGCTGACGAGTCCCAAATAGGACGAAACGCGC
modifications: expressed or natural sequence
B9: RA173 (nucleic acid)
DNA: GCGCGTCCTGGATTCGCGGAAACGCGTACATCCAGCTGACGAGTCCCAAATAGCGGAATACCAGCATCGTCTTGATGCCCTTGGAAGTCCGGACGAAACGCGC
modifications: expressed or natural sequence
B10: RA169 (nucleic acid)
DNA: GCGCGTCCTGGCCGGAATACCAGCATCGTCTTGATGCCCTTGGAAGTCCGGATTCGCGGAAACGCGTACATCCAGCTGACGAGTCCCAAATAGGACGAAACGCGC
modifications: expressed or natural sequence
B11: RA155 (nucleic acid)
DNA: GCGCGTCCTGGATTCGCGGAAACGCGTACATCCAGCTGACGAGTCCCAAATAGGACGAGAATACCAGCATCGTCTTGATGCCCTTGGAAGTCTCGCGAAACGCGC
modifications: expressed or natural sequence
B12: RA165 (nucleic acid)
DNA: GCGCGTCCTGGATTCGCGGAAACGCGTAGAGAATACCAGCATCGTCTTGATGCCCTTGGAAGTCTCCATCCAGCTGACGAGTCCCAAATAGGACGAAACGCGC
modifications: expressed or natural sequence
B13: RA153 (nucleic acid)
DNA: CGAGAATACCAGCATCGTCTTGATGCCCTTGGAAGTCTCGGCGCGTCCTGGATTCGCGGAAACGCGTACATCCAGCTGACGAGTCCCAAATAGGACGAAACGCGC
modifications: expressed or natural sequence
B14: RA015 (nucleic acid)
DNA: GCGCGTCCTGGATTCGCGGCGGAATACCAGCATCGTCTTGATGCCCTTGGAAGTCCGAAACGCGTACATCCAGCTGACGAGTCCCAAATAGGACGAAACGCGC
modifications: expressed or natural sequence
B15: RA150 (nucleic acid)
DNA: GCGCGTCCTGGATTCGCGGAAACGCGTACATCCAGCTGACGAGTCCCAAATAGGACGAAAGGAATACCAGCATCGTCTTGATGCCCTTGGAAGTCCCGCGC
modifications: expressed or natural sequence
B16: RA154 (nucleic acid)
DNA: GCGCGTCCTGGATTCGCGGAAACGCGAGAATACCAGCATCGTCTTGATGCCCTTGGAAGTCTCGTACATCCAGCTGACGAGTCCCAAATAGGACGAAACGCGC
modifications: expressed or natural sequence
B17: RA151 (nucleic acid)
DNA: GCGCGTCCTGGATTCGCGGAAACGCGTACCGGAATACCAGCATCGTCTTGATGCCCTTGGAAGTCCGGCATCCAGCTGACGAGTCCCAAATAGGACGAAACGCGC
modifications: expressed or natural sequence
B18: RA164 (nucleic acid)
DNA: GCGCGTCCTGGATTCGCGGAAACGCGTACATCCAGCTGACGAGTCCCAAATAGGACGCGAGAATACCAGCATCGTCTTGATGCCCTTGGAAGTCTCGAAACGCGC
modifications: expressed or natural sequence
B19: RA172 (nucleic acid)
DNA: AGAATACCAGCATCGTCTTGATGCCCTTGGAAGTCTGCGCGTCCTGGATTCGCGGAAACGCGTACATCCAGCTGACGAGTCCCAAATAGGACGAAACGCGC
modifications: expressed or natural sequence
B20: RA149 (nucleic acid)
DNA: GCGCGGAGAATACCAGCATCGTCTTGATGCCCTTGGAAGTCTCTCCTGGATTCGCGGAAACGCGTACATCCAGCTGACGAGTCCCAAATAGGACGAAACGCGC
modifications: expressed or natural sequence
B21: RA162 (nucleic acid)
DNA: GCGCGTCCTGGATTCGCGGAAACGCGTACATCCAGCTGACGAGTCCCAAATAGGGGAATACCAGCATCGTCTTGATGCCCTTGGAAGTCCACGAAACGCGC
modifications: expressed or natural sequence
B22: RA163 (nucleic acid)
DNA: GCGCGTCCTGGATTCGCGGAAACGCGTACATCCAGCCGGAATACCAGCATCGTCTTGATGCCCTTGGAAGTCCGGCTGACGAGTCCCAAATAGGACGAAACGCGC
modifications: expressed or natural sequence
B23: RA158 (nucleic acid)
DNA: GCGCGTCCTGGATTCGCGGAAACGCGTACATCCAGCTGACGAGTCCCAAATAGGACGAGTGATACCAGCATCGTCTTGATGCCCTTGGCAGCACTAAACGCGC
modifications: expressed or natural sequence
B24: RA171 (nucleic acid)
DNA: GCGCGTCCTGGATTCGCGGAAACGCGTACACGAGAATACCAGCATCGTCTTGATGCCCTTGGAAGTCTCGTCCAGCTGACGAGTCCCAAATAGGACGAAACGCGC
modifications: expressed or natural sequence
B25: RA159 (nucleic acid)
DNA: GCGCGTCCTGGATTCGCGGAATACCAGCATCGTCTTGATGCCCTTGGAAGTCCGCGGAAACGCGTACATCCAGCTGACGAGTCCCAAATAGGACGAAACGCGC
modifications: expressed or natural sequence
B26: RA160 (nucleic acid)
DNA: GCGCGTCCTGGATTCGCGGAAACGCGTACATCCAGCTGACGAGGGAATACCAGCATCGTCTTGATGCCCTTGGAAGTCCTCCCAAATAGGACGAAACGCGC
modifications: expressed or natural sequence
B27: RA152 (nucleic acid)
DNA: GCGCGTGGAATACCAGCATCGTCTTGATGCCCTTGGAAGTCCCCTGGATTCGCGGAAACGCGTACATCCAGCTGACGAGTCCCAAATAGGACGAAACGCGC
modifications: expressed or natural sequence

This data set relates to Renilla luciferase RNA. Put plainly: Barcoded aptazyme variant library screen: un-cleaved Renilla luciferase RNA by barcode read counts, HEK293-T cells. The class given is cell-based. Particulars: un-cleaved Renilla luciferase RNA, HEK293-T cells cultured with 1 mM theophylline (ON) over without theophylline (OFF); barcode read counts, triplicate. An outline of the steps:
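Aptazyme variants (seven theophylline aptamers inserted after each T3H48 ribozyme nucleotide, 9-nt barcoded) cloned into the 3′ UTR of Renilla luciferase in psiCHECK-2; cells cultured ± theophylline, in triplicate. RNA and DNA barcodes amplified and sequenced; normalized read counts gave un-cleaved RNA fraction and ON/OFF fold-change.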
On to B1, for which the “Fold change in RNA expression between the ON state and the OFF state” value (from here on “Fold change”) was found to be 1.3 fold.
The figure for B2 is 2.8 fold; for B3 it is 1.3 fold.
The figure for B4 is 1.3 fold; for B5 it is 1.3 fold; for B6 it is 1.3 fold.
B7: the “Fold change” value turned out to be 1.3 fold.
B8: the “Fold change” value came to 1.3 fold.
The value for B9 was 1.3 fold.
As for B10, the “Fold change” value was found to be 1.3 fold.
As for B11, the “Fold change” value was 1.3 fold.
The value for B12 was 1.3 fold; that for B13 was 1.3 fold.
The figure for B14 is 3.0 fold; for B15 it is 1.4 fold; for B16 it is 1.3 fold.
For the molecule B17, the “Fold change” value was 1.4 fold.
As to B18, the “Fold change” value was found to be 1.3 fold.
On to B19, for which the “Fold change” value is listed as 1.3 fold.
The value for B20 was 1.4 fold.
The value for B21 was 1.3 fold; that for B22 was 1.3 fold; that for B23 was 1.3 fold.
The value for B24 was 1.3 fold; that for B25 was 1.3 fold; that for B26 was 1.3 fold.
For the molecule B27, the “Fold change” value was 1.4 fold.
